# From paper PMC4330345 (Nucleic Acids Research, 2015)
# Target: the molecule itself
# Assay: SEC
# Conditions: not given
row,Binder,stoichiometry N
1,"HlyU of V. cholerae, wild type (natural protein, not shown: His6, N-terminal, cleaved) MPYLKGAPMNLQEMEKNSAKAVVLLKAMANERRLQILCMLLDNELSVGELSSRLELSQSALSQHLAWLRRDGLVNTRKEAQTVFYTLSSTEVKAMIELLHRLYCQANQ",2

# Target: T1, HlyU_Vc wild type (Vibrio cholerae, UniProt P52695 1-108)
# T1 sequence: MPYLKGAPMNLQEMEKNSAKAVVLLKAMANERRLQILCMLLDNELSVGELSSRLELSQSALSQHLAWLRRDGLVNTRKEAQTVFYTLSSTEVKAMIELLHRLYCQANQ
# Assay: EMSA; EMSA: 1 nM probe, 1 mM Tris, 6 mM NaCl, 0.5 mM MgCl2, 0.01 mM EDTA, 0.1 mM CaCl2, 0.2% glycerol, 0.03 mg/ml salmon sperm DNA, 1 h, 4 C, pH not stated; footprint: ~10 nM DNA, 1 h, 4 C
# Conditions: protein: recombinant; tags: N-terminal 6xHis removed with thrombin; chain copies: 2; label: radiolabel; blunt
row,Binder,binding result
1,O1 (dsDNA) DNA 1: TTTATAAATTAATTCAGACTAAATTAGTTCAAATT DNA 2: AATTTGAACTAATTTAGTCTGAATTAATTTATAAA,binds
2,O2 (dsDNA) DNA 1: ATTAATCTTTAAATCAACTTTATAAATTAATTCAG DNA 2: CTGAATTAATTTATAAAGTTGATTTAAAGATTAAT,no binding
3,O3 (dsDNA) DNA 1: TTGGGGGGGGGGGGGGGACTAAATTAGTTCAAATT DNA 2: AATTTGAACTAATTTAGTCCCCCCCCCCCCCCCAA,no binding

# Target: the molecule itself
# Assay: SEC; analytical gel filtration (AKTA prime Plus); 500 ug protein injected; 50 mM sodium phosphate, 200 mM sodium chloride, pH 6.8; molecular weight from marker proteins; self-association, dimer against monomer
# Conditions: not given
row,Binder,binding result
1,"HlyU_Vc R69A (natural protein, source: E. coli BL21 (DE3), purified (Ni-NTA); not shown: His6, N-terminal, cleaved) MPYLKGAPMNLQEMEKNSAKAVVLLKAMANERRLQILCMLLDNELSVGELSSRLELSQSALSQHLAWLARDGLVNTRKEAQTVFYTLSSTEVKAMIELLHRLYCQANQ",binds
2,"HlyU_Vc H64A (natural protein, source: E. coli BL21 (DE3), purified (Ni-NTA); not shown: His6, N-terminal, cleaved) MPYLKGAPMNLQEMEKNSAKAVVLLKAMANERRLQILCMLLDNELSVGELSSRLELSQSALSQALAWLRRDGLVNTRKEAQTVFYTLSSTEVKAMIELLHRLYCQANQ",binds
3,"HlyU_Vc E49A (natural protein, source: E. coli BL21 (DE3), purified (Ni-NTA); not shown: His6, N-terminal, cleaved) MPYLKGAPMNLQEMEKNSAKAVVLLKAMANERRLQILCMLLDNELSVGALSSRLELSQSALSQHLAWLRRDGLVNTRKEAQTVFYTLSSTEVKAMIELLHRLYCQANQ",binds
4,"HlyU_Vc K26A (natural protein, source: E. coli BL21 (DE3), purified (Ni-NTA); not shown: His6, N-terminal, cleaved) MPYLKGAPMNLQEMEKNSAKAVVLLAAMANERRLQILCMLLDNELSVGELSSRLELSQSALSQHLAWLRRDGLVNTRKEAQTVFYTLSSTEVKAMIELLHRLYCQANQ",binds
5,"HlyU_Vc T90A (natural protein, source: E. coli BL21 (DE3), purified (Ni-NTA); not shown: His6, N-terminal, cleaved) MPYLKGAPMNLQEMEKNSAKAVVLLKAMANERRLQILCMLLDNELSVGELSSRLELSQSALSQHLAWLRRDGLVNTRKEAQTVFYTLSSAEVKAMIELLHRLYCQANQ",binds
6,"HlyU_Vc A66S (natural protein, source: E. coli BL21 (DE3), purified (Ni-NTA); not shown: His6, N-terminal, cleaved) MPYLKGAPMNLQEMEKNSAKAVVLLKAMANERRLQILCMLLDNELSVGELSSRLELSQSALSQHLSWLRRDGLVNTRKEAQTVFYTLSSTEVKAMIELLHRLYCQANQ",binds
7,"HlyU_Vc L98D (natural protein, source: E. coli BL21 (DE3), purified (Ni-NTA); not shown: His6, N-terminal, cleaved) MPYLKGAPMNLQEMEKNSAKAVVLLKAMANERRLQILCMLLDNELSVGELSSRLELSQSALSQHLAWLRRDGLVNTRKEAQTVFYTLSSTEVKAMIEDLHRLYCQANQ",binds
8,"HlyU_Vc W67A (natural protein, source: E. coli BL21 (DE3), purified (Ni-NTA); not shown: His6, N-terminal, cleaved) MPYLKGAPMNLQEMEKNSAKAVVLLKAMANERRLQILCMLLDNELSVGELSSRLELSQSALSQHLAALRRDGLVNTRKEAQTVFYTLSSTEVKAMIELLHRLYCQANQ",binds
9,"HlyU_Vc R33A (natural protein, source: E. coli BL21 (DE3), purified (Ni-NTA); not shown: His6, N-terminal, cleaved) MPYLKGAPMNLQEMEKNSAKAVVLLKAMANERALQILCMLLDNELSVGELSSRLELSQSALSQHLAWLRRDGLVNTRKEAQTVFYTLSSTEVKAMIELLHRLYCQANQ",binds
10,"HlyU_Vc K78A (natural protein, source: E. coli BL21 (DE3), purified (Ni-NTA); not shown: His6, N-terminal, cleaved) MPYLKGAPMNLQEMEKNSAKAVVLLKAMANERRLQILCMLLDNELSVGELSSRLELSQSALSQHLAWLRRDGLVNTRAEAQTVFYTLSSTEVKAMIELLHRLYCQANQ",binds
11,"HlyU_Vc Q63A (natural protein, source: E. coli BL21 (DE3), purified (Ni-NTA); not shown: His6, N-terminal, cleaved) MPYLKGAPMNLQEMEKNSAKAVVLLKAMANERRLQILCMLLDNELSVGELSSRLELSQSALSAHLAWLRRDGLVNTRKEAQTVFYTLSSTEVKAMIELLHRLYCQANQ",binds
12,"HlyU_Vc Q81A (natural protein, source: E. coli BL21 (DE3), purified (Ni-NTA); not shown: His6, N-terminal, cleaved) MPYLKGAPMNLQEMEKNSAKAVVLLKAMANERRLQILCMLLDNELSVGELSSRLELSQSALSQHLAWLRRDGLVNTRKEAATVFYTLSSTEVKAMIELLHRLYCQANQ",binds
13,"HlyU_Vc S62A (natural protein, source: E. coli BL21 (DE3), purified (Ni-NTA); not shown: His6, N-terminal, cleaved) MPYLKGAPMNLQEMEKNSAKAVVLLKAMANERRLQILCMLLDNELSVGELSSRLELSQSALAQHLAWLRRDGLVNTRKEAQTVFYTLSSTEVKAMIELLHRLYCQANQ",binds
14,"HlyU_Vc R70A (natural protein, source: E. coli BL21 (DE3), purified (Ni-NTA); not shown: His6, N-terminal, cleaved) MPYLKGAPMNLQEMEKNSAKAVVLLKAMANERRLQILCMLLDNELSVGELSSRLELSQSALSQHLAWLRADGLVNTRKEAQTVFYTLSSTEVKAMIELLHRLYCQANQ",binds
15,"HlyU_Vc N30A (natural protein, source: E. coli BL21 (DE3), purified (Ni-NTA); not shown: His6, N-terminal, cleaved) MPYLKGAPMNLQEMEKNSAKAVVLLKAMAAERRLQILCMLLDNELSVGELSSRLELSQSALSQHLAWLRRDGLVNTRKEAQTVFYTLSSTEVKAMIELLHRLYCQANQ",binds
16,"HlyU_Vc L65A (natural protein, source: E. coli BL21 (DE3), purified (Ni-NTA); not shown: His6, N-terminal, cleaved) MPYLKGAPMNLQEMEKNSAKAVVLLKAMANERRLQILCMLLDNELSVGELSSRLELSQSALSQHAAWLRRDGLVNTRKEAQTVFYTLSSTEVKAMIELLHRLYCQANQ",binds
17,"HlyU_Vc R32A (natural protein, source: E. coli BL21 (DE3), purified (Ni-NTA); not shown: His6, N-terminal, cleaved) MPYLKGAPMNLQEMEKNSAKAVVLLKAMANEARLQILCMLLDNELSVGELSSRLELSQSALSQHLAWLRRDGLVNTRKEAQTVFYTLSSTEVKAMIELLHRLYCQANQ",binds
18,"HlyU_Vc Y85A (natural protein, source: E. coli BL21 (DE3), purified (Ni-NTA); not shown: His6, N-terminal, cleaved) MPYLKGAPMNLQEMEKNSAKAVVLLKAMANERRLQILCMLLDNELSVGELSSRLELSQSALSQHLAWLRRDGLVNTRKEAQTVFATLSSTEVKAMIELLHRLYCQANQ",binds
